In patent US20230272099A1 (Chugai, published 2023):
Substitutions are numbered along the chain they refer to.

B1: dBBAT091-P253 (antibody, human IgG1, lambda, V domains shown)
VH: EVQLVESGGDLVKPGGGLRLSCAASGFTFSSYTMNWVRQAPGKGLEWVSSISSRSNYIDYADSVKGRFTISRDNAKNSLYLQMNSLRAEDTAVYYCARFGKKNDMNWVFDYWGQGTLVTVSS
VL: QSALTQPPSASGSPGQTVTISCTGTSTDVGFYNYVSWYQQHPGKAPKLMIYEGSKRPSGVPDRFSGSKSGNTASLTVSGLQAEDEADYFCSSYEYTESVLFGGGTKLTVLG
B2: dBBAT119-P253 (antibody, human IgG1, lambda, V domains shown)
VH: B1 VH with S31T, Y32F, I58K, D59S, F99Y, K101A, D104F
VL: B1 VL with E52Y, G53T, E94R, T96D, E97H, S98Q, L100S
notes: also called dBBAT119H-P253/dBBAT119L-LamLib
B3: dBBAT042-P253 (antibody, human IgG1, lambda, V domains shown)
VH: B1 VH with Y32H, V48I, I58K, D59S, F99Y, K101H, D104M, M105H
VL: B1 VL with T27S, G53V, S92T, E94R, T96D, E97Q, S98N, L100A
B4: dBBAT021-P253 (antibody, human IgG1, lambda, V domains shown)
VH: B1 VH with I58R, F99Y, K101G, D104I, M105L
VL: B1 VL with T27S, G53V, E94S, Y95S, T96D, E97T, S98H, L100G
B5: dBBAT037-P253 (antibody, human IgG1, lambda, V domains shown)
VH: B1 VH with S31G, K101L, D104S, M105L
VL: B1 VL with G53T, E94S, Y95G, T96A, E97S, S98I, V99L
B6: dBBAT122-P253 (antibody, human IgG1, lambda, V domains shown)
VH: B1 VH with S31T, I58K, D59F, K101G, D104N
VL: B1 VL with T27S, G53V, T96I
B7: dBBAT112-P253 (antibody, human IgG1, lambda, V domains shown)
VH: B1 VH with S31T, I58K, D59F, K101V, D104N
VL: B1 VL with T27S, G53V, T96I
B8: dBBAT015-P253 (antibody, human IgG1, lambda, V domains shown)
VH: B1 VH with S31T, N56T, I58A, D59T, F99Y, K101L, D104S, M105L
VL: B1 VL with G53V, R56K, S92T, E94S, T96D, L100A
B9: 20H4.9-MB110/20H4.9LC-mk0 (antibody, mouse IgG1, kappa)
heavy: QVQLQQWGAGLLKPSETLSLTCAVYGGSFSGYYWSWIRQSPEKGLEWIGEINHGGYVTYNPSLESRVTISVDTSKNQFSLKLSSVTAADTAVYYCARDYGPGNYDWYFDLWGRGTLVTVSSAKTTPPSVYPLAPGSAAQTNSMVTLGCLVKGYFPEPVTVTWNSGSLSSGVHTFPAVLQSDLYTLSSSVTVPSSTWPSETVTCNVAHPASSTKVDKKIVPRDCGCKPCICTVPEVSDVFIFPPKPKDVLTITLTPKVTCVVVDISKDDPEVQFSWFVDDVEVHTAQTQPREEQFNSTFRSVSELPIMHQDWLNGKEFKCRVNSAAFPAPIEKTISKTKGRPKAPQVYTIPPPKEQMAKDKVSLTCMITDFFPEDITVEWQWNGQPAENYKNTQPIMDTDGSYFVYSKLNVQKSNWEAGNTFTCSVLHEGLHNHHTEKSLSHSPGK
light: EIVLTQSPATLSLSPGERATLSCRASQSVSSYLAWYQQKPGQAPRLLIYDASNRATGIPARFSGSGSGTDFTLTISSLEPEDFAVYYCQQRSNWPPALTFGGGTKVEIKRADAAPTVSIFPPSSEQLTSGGASVVCFLNNFYPKDINVKWKIDGSERQNGVLNSWTDQDSKDSTYSMSSTLTLTKDEYERHNSYTCEATHKTSTSPIVKSFNRNEC
notes: also called NS1-MB110

What follows are binders tested against T1, hCD137 (FXa digested) (human, UniProt Q07011 24-186) (assay: SPR, 10 uM ADP).
T1 construct: Factor Xa digestion and Protein A removed the Fc; also called human CD137 extracellular domain
T1 sequence (Q07011 other isoform, or with tags, fused parts or gaps limits assumed): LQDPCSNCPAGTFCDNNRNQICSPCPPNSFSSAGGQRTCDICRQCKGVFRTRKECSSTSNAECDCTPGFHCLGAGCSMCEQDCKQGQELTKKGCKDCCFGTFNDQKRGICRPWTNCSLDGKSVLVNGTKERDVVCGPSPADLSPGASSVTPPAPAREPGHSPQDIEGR
Method: (§1) Biacore T200 (GE Healthcare) was used to analyze the interaction of antigen-antibody reaction between the anti-CD137 antibodies and hCD137 (FXa digest). […] For the running buffer, 20 mM ACES, 150 mM NaCl, 2 mM MgCl₂, 0.05% Tween20 (pH 7.4) was used, and 10 mM Glycine-HCl (pH 1.5) was used as the regeneration solution.
(§2) After capturing of the anti-CD137 antibodies suspended in TBS, 500 nM hCD137 (FXa digest) was injected into each flow cell at a flow rate of 10 μL/min for three minutes. This three-minute period served as the binding phase for hCD137 (FXa digest), and after the binding phase ended, the two-minute period of switching to the running buffer served as the dissociation phase for hCD137 (FXa digest). After completion of the dissociation phase, the regenerative solution was injected at a flow rate of 30 μl/min for 30 seconds. The above was the cycle for measuring the binding activity of anti-CD137 antibodies. The binding amount of hCD137 (FXa digest) that interacted with the anti-CD137 antibody in the binding phase was adjusted by the amount of antibody captured. Biacore T200 Evaluation Software Version 2.0 was used to display the binding amount (RU) per capture ligand 1 RU, and values of the antibody capture amount (amount of antibody captured) and antigen-binding amount were obtained. Since the binding amount of antigen reflects the binding activity, it can be said that dependence on a small molecule is recognized when the value in the presence of the small molecule (ATP, ADP or AMP) is higher than the value without the small molecule. In particular, the larger the difference is, the higher the dependence is on a small molecule.

Binder | binding amount
B1 | 20 RU
B2 | 67.2 RU
B3 | 19.1 RU
B4 | 19.6 RU
B5 | 62.9 RU
B6 | 19.2 RU
B7 | 27.4 RU

Each binder was assayed against T2, biotinylated Fc-fused monkey CD137 (monkey, biotin on the AviTag) (assay: ELISA, 1 mM ADP, 2.5 ug/mL).
T2 construct: also called cyCD137-Fc-BAP
T2 sequence (chain, as listed by the source limits assumed): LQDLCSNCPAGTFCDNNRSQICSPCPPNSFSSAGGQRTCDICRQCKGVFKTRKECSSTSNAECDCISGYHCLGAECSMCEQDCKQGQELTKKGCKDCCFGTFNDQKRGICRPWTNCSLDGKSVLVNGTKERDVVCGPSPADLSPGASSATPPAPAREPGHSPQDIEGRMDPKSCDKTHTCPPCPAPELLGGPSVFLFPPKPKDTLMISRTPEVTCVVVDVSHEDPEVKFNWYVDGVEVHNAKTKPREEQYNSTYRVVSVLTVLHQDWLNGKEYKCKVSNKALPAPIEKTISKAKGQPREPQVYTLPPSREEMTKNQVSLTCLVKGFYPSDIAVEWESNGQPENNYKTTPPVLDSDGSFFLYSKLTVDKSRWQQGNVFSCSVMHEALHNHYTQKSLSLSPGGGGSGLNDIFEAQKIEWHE
Parameters: reference not given here
Method: (§3) The obtained antibodies were evaluated for binding to monkey CD137 by ELISA. The cyCD137-Fc-BAP prepared in Reference Example 1 was immobilized on Streptawell microtiter plates. After the unbound antigen was removed from the plates by washing each well of the plates with the wash buffer, the wells were blocked with 150 μL of a blocking buffer (TBS with 2% BSA) for 1 hour or more. The blocking buffer was removed from each well, and 100 μL of the purified antibodies diluted in TBS with a final concentration of 1 mM ADP, or TBS with a final concentration 1 mM ADP was added to each well. The plate to which the antibody was added was shaken at 600 rpm for 1 hour. The AP-conjugated anti-human lambda antibodies (BETHYL) diluted in TBS with a final concentration of 1 mM ADP were added to each well after washing with a wash buffer (TBS with 0.1% Tween20) containing a final concentration of 1 mM ADP. After incubation for one hour and washing with a wash buffer containing a final concentration of 1 mM […], BluePhos phosphate substrate (KPL) was added. Color development was measured by absorbance at 600 nm. Samples with a concentration-dependent increase in the absorbance ratio can be said to be bound to monkey CD137.

Binder | absorbance ratio
B1 | 5.5
B2 | 56.6
B8 | 32.4
B4 | 14
B5 | 12.7
B6 | 16.7
B7 | 8.1

The binders below were run against T2, biotinylated Fc-fused monkey CD137 (assay: ELISA, 1 mM ADP, 10 ug/mL).
Parameters: reference not given here
Method: as §3

Binder | absorbance ratio
B1 | 15.1
B2 | 55.3
B8 | 42.9
B4 | 40.5
B5 | 32.5
B6 | 31.9
B7 | 19.8

Each binder was assayed against T1, hCD137 (FXa digested) (assay: SPR, 100 uM ADP).
Method: as §1, §2

Binder | binding amount
B1 | 33 RU
B2 | 112 RU
B3 | 58.7 RU
B4 | 56.6 RU
B5 | 72.1 RU
B6 | 55.5 RU
B7 | 43 RU

What follows are binders tested against T1, hCD137 (FXa digested) (assay: SPR 37C, 1 uM ATP).
Method: (§4) Measurements of human CD137 binding were taken at 37° C. using 20 mM ACES (pH 7.4), 150 mM NaCl, 2 mM MgCl₂, and 0.05% Tween20 as running buffer. At first, antibodies were captured by interacting antibody solutions prepared in running buffer with the rabbit anti-mouse IgG (Thermo Scientific)-immobilized Series S Sensor Chip CM5 (GE Healthcare). The human CD137-binding activity in the presence of ATP and in the absence of ATP was then assessed by interacting with a human CD137 solution prepared in running buffer supplemented with a desired concentration of ATP, or a human CD137 solution prepared in running buffer without ATP. […] The chip was regenerated using 25 mM NaOH and 10 mM Glycine-HCl (pH 1.5), and measurements were performed by repeatedly capturing antibodies. Dissociation constant (KD) of the respective antibodies for human CD137 was calculated using Biacore T200 Evaluation Software 2.0. Specifically, the association rate constant ka (L/mol/s) and the dissociation rate constant kd (1/s) were calculated by global fitting of the sensorgrams obtained by measurement with the 1:1 Langmuir binding model, and the dissociation constant KD (mol/L) was calculated from these values.

Binder | Kd
B9 | 56.5 nM

Each binder was assayed against T2, biotinylated Fc-fused monkey CD137 (assay: ELISA, 1 mM ADP, 0.039 ug/mL).
Parameters: reference not given here
Method: as §3

Binder | absorbance ratio
B1 | 0.5
B2 | 26.6
B8 | 1.5
B4 | 1.2
B5 | 1.3
B6 | 1
B7 | 0.6

What follows are binders tested against T1, hCD137 (FXa digested) (assay: SPR, 1 mM ATP).
Method: as §1, §2

Binder | binding amount
B1 | 6.2 RU
B2 | 45.7 RU
B3 | 11.7 RU
B4 | 9.2 RU
B5 | 27.5 RU
B6 | 11.5 RU
B7 | 12.6 RU

Each binder was assayed against T2, biotinylated Fc-fused monkey CD137 (assay: ELISA, 1 mM ADP, 0.010 ug/mL).
Parameters: reference not given here
Method: as §3

Binder | absorbance ratio
B1 | 0.6
B2 | 10.2
B8 | 1.1
B4 | 0.9
B5 | 1.1
B6 | 0.9
B7 | 0.6

The binders below were run against T1, hCD137 (FXa digested) (assay: SPR, 1 mM AMP).
Method: as §1, §2

Binder | binding amount
B1 | 2.9 RU
B2 | 58.6 RU
B3 | 7.8 RU
B4 | 5.7 RU
B5 | 21.7 RU
B6 | 5.7 RU
B7 | 6.5 RU

What follows are binders tested against T2, biotinylated Fc-fused monkey CD137 (assay: ELISA, 1 mM ADP, 0.625 ug/mL).
Parameters: reference not given here
Method: as §3

Binder | absorbance ratio
B1 | 1.7
B2 | 57.2
B8 | 14.4
B4 | 4.6
B5 | 4.6
B6 | 5.7
B7 | 2.8

Each binder was assayed against T2, biotinylated Fc-fused monkey CD137 (assay: ELISA, 1 mM ADP, 0.156 ug/mL).
Parameters: reference not given here
Method: as §3

Binder | absorbance ratio
B1 | 0.7
B2 | 47.7
B8 | 3.6
B4 | 1.7
B5 | 1.9
B6 | 1.9
B7 | 1

These binders were tested against T1, hCD137 (FXa digested) (assay: SPR, no small molecule).
Method: as §1, §2

Binder | binding amount
B1 | 1.5 RU
B2 | 3.3 RU
B3 | 2.9 RU
B4 | 2.9 RU
B5 | 3.8 RU
B6 | 3.3 RU
B7 | 3.7 RU

Each binder was assayed against T1, hCD137 (FXa digested) (assay: SPR 37C, no ATP).
Method: as §4

Binder | Kd
B9 | 61 nM

These binders were tested against T1, hCD137 (FXa digested) (assay: SPR 37C, 100 uM ATP).
Method: as §4

Binder | Kd
B9 | 51.9 nM

The binders below were run against T1, hCD137 (FXa digested) (assay: SPR 37C, 10 uM ATP).
Method: as §4

Binder | Kd
B9 | 53.9 nM

Each binder was assayed against T1, hCD137 (FXa digested) (assay: SPR, 100 uM ATP).
Method: as §1, §2

Binder | binding amount
B1 | 3 RU
B2 | 12.9 RU
B3 | 4.3 RU
B4 | 2.4 RU
B5 | 15.9 RU
B6 | 4.7 RU
B7 | 6.3 RU

These binders were tested against T1, hCD137 (FXa digested) (assay: SPR, 100 uM AMP).
Method: as §1, §2

Binder | binding amount
B1 | 3.3 RU
B2 | 26.9 RU
B3 | 4.7 RU
B4 | 3 RU
B5 | 13.8 RU
B6 | 4.1 RU
B7 | 4.8 RU
